Measured values: patent US9481870B2, “Nucleic acid encoding a polypeptide having aminotransferase activity, vectors and host cells comprising the nucleic acid” (KANEKA CORPORATION, priority 2010, dated 2016)

Assays:
[1] = Optimum pH of transamination activity; format: biochemical
Procedure: The optimum pH for transamination is determined by the above activity assay A using combinations of the following buffers and pHs. […] When activity levels are different depending on buffer types, the activity level higher than the other is employed even if the pHs are the same. • pH4.0, 4.5, 5.0, 5.5: 0.1 M sodium acetate buffer • pH6.0, 6.5, 7.0, 7.5, 8.0: 0.1 M potassium phosphate buffer • pH7.5, 8.0, 8.5, 9.0: 0.1M Tris-hydrochloric acid buffer (Optimum Temperature)
(§1) The transamination activity of purified TPM was examined under the following activity assay conditions. Specifically, purified TPM was added to a substrate solution with the composition given below to a total amount of 1 mL. After 5 minutes of reaction at 30° C., 0.05 mL of 6N hydrochloric acid was added to stop the reaction. HPLC analysis was conducted under the following conditions.
Transamination activity was determined in a manner similar to the above at pHs ranging from 4.0 to 9.0 and then the optimum pH of TPM was examined.
The following buffers were used according to pH for determination.
[Buffer] • pH4.0, 4.5, 5.0, or 5.5: 0.1 M sodium acetate buffer • pH6.0, 6.5, 7.0, 7.5, or 8.0: 0.1 M potassium phosphate buffer • pH7.5, 8.0, 8.5, or 9.0: 0.1 M tris-hydrochloric acid buffer • (3) Optimum Temperature: […]

[2] = Thermal stability (residual activity after 30 minutes heating); format: physicochemical; details: for Residual activity: pH7.5, before heat treatment = 100
Procedure: The thermal stability of the polypeptide is determined as follows.
The purified TPM was reacted for 30 minutes in 0.1 M potassium phosphate buffer (pH7.5) containing 0.5 mM pyridoxal phosphate at 30° C., 40° C., 50° C., 60° C., 70° C., and 80° C., and then activity assay was performed in a similar manner. As a result, 90% or more of the activity before heat treatment remained after treatment at 30° C. to 60° C.

[3] = Activity of purified TPM for 1-benzyl-3-pyrrolidinone and optical purity of product; format: biochemical; details: 2 hours
Procedure: The above properties can be determined by the following method. Specifically, a purified polypeptide is added to a substrate solution having the following composition so that it has a final concentration ranging from 0.1 mg/mL to 1 mg/mL for reaction at 30° C. Furthermore, the reaction is continued until 0.6 mM or more 1-benzyl-3-aminopyrrolidine (as determined by the following quantitative analysis) is generated. After the completion of the reaction, the optical purity of the 1-benzyl-3-aminopyrrolidine generated in the reaction solution is analyzed by HPLC under the following conditions. […]
[High Performance Liquid Chromatography (HPLC) Analysis Conditions] • <Quantitative A> • Column: Finepak SIL C18-T (JASCO Corporation) • Eluent: distilled water 1260 mL/acetonitrile 740 mL/KH2 PO4 10 g/SDS 2.88 g (pH3.6) • Flow rate: 1 mL/minute • Detection: 254 nm • Column temperature: 40° C. […]
A reaction solution was treated with an appropriate amount of sodium carbonate so that it became basic, derivatized with dinitrobenzoyl chloride, and then analyzed under the following conditions. • Column: Chiral pak IA (Daicel Corporation) • Eluent: hexane/ethanol/diethylamine/acetonitrile=800/200/1/5 (volume ratio) • Flow rate: 0.8 mL/minute • Detection: 254 nm

[4] = Transamination activity assay (activity assay A), activity for (S)-1-phenethylamine; format: biochemical; details: (S)-1-phenethylamine 25 mM, sodium pyruvate 25 mM, pH 8.0, 30° C., 5 minutes
Procedure: The above transamination activity can be determined by the following method. Specifically, first, a purified polypeptide is added to a substrate solution having the following composition so that the total volume is 1 mL. After 5 minutes of reaction at 30° C., 0.05 mL of 6N hydrochloric acid is added to stop the reaction. The reaction solution is then analyzed by HPLC under the following conditions and then the quantity of the thus generated acetophenone is determined (hereinafter, referred to as “activity assay A”).
as §1
[High Performance Liquid Chromatography (HPLC) Analysis Conditions] • Column: Wakosil-II 5C18 RS (Wako Pure Chemical Industries, Ltd.) • Eluent: 10 mM potassium phosphate buffer (pH5.3): acetonitrile=3:2 • Flow rate: 1 mL/minute • Detection: 241 nm • (1) Activity for (S)-1-phenethylamine: […]

[5] = Resistance to water-soluble organic solvent (residual activity); format: physicochemical; details: 2 hours, 30° C.
Procedure: Resistance to a water-soluble organic solvent can be determined by the following method. Specifically, first, 800 uL of each water-soluble organic solvent is added to 200 uL of a 0.1 M aqueous potassium phosphate solution (pH7.5) supplemented with 0.5 mM PLP containing a purified polypeptide, so that the solvent is brought into contact with the solution at 30° C. for 2 hours. Subsequently, the resultant is diluted with a 0.1 M aqueous potassium phosphate solution supplemented with 0.5 mM PLP. Activity in the dilute solution is compared with the same in a purified polypeptide solution before addition of the solvent using the above activity assay A.
• (5) Resistance to water-soluble organic solvent: 800 μL of 1-propanol, 2-propanol, or acetone was added to 200 μL of 0.1 M potassium phosphate buffer (pH7.5) containing 0.5 mM pyridoxal phosphate to which purified TPM had been added, followed by 2 hours of treatment at 30° C. After treatment, 0.1 M potassium phosphate buffer (pH7.5) containing 0.5 mM pyridoxal phosphate was diluted 20-fold, and then the activity of the diluted solution was determined under conditions similar to those above.
The resistance of commercially available Vibrio fluvialis-derived ω-Transaminase VF (Julich-Chemicals) to a water-soluble organic solvent was examined by a method similar to that for resistance to a water-soluble organic solvent in Example 9 (5).

B1: TPM: purified aminotransferase polypeptide from Pseudomonas sp. MV37, about 50,000 molecular weight, amino acid sequence SEQ ID NO: 1 (protein, listed as Pseudomonas sp.)
chain: MNHLEKMLELDRNHLIHPHLPKSEFSRTIFARGKGCKLWDTEGREYLDATGGLWLAQIGHGREEIAEVAARQMKQLEYFTCFWDFSNERAIELAEKLARLAPGDLEMSFFTSGGSEGDDAAIKTARYYHSQRGEPKRTWILSRNNAYHGLAYGGGTATGFPELRDGMGPGLPHVAYLTQPNAYRHYYFDGQNPTDFCVSELEKMIASIGAENIAAMIAEPIMGVGGMVPPPVDYWPRMSQVLKKNGILLIFDEVVSAFGRSGHWFAAEKYGVIPDIMVTAKGISSGYIPLGAVIMSRDVADTVREGHGYPLGYTYSGHPVACAVALENLRILEDEDLINRSNHMGTYIAEQLTALRDNPCVGEVRQAGMGIGIELVTDKESRQPLPDAALVIPDIIREETGVIVRISNATNLCMSPPLTMSREEADRAVEAVCSVLSRVKPDGKV
B1 showed a Relative activity ([1]; 0.1M Potassium phosphate, pH 6.0, activity at pH7 = 100) of 86, a Relative activity ([1]; 0.1M Potassium phosphate, pH 6.5, activity at pH7 = 100) of 94 and a Relative activity ([1]; 0.1M Potassium phosphate, pH 7.0, designated as 100) of 100. For the same molecule, the Relative activity ([1]; 0.1M Potassium phosphate, pH 7.5, activity at pH7 = 100) was 88, the Relative activity ([1]; 0.1M Potassium phosphate, pH 8.0, activity at pH7 = 100) was 67 and the Relative activity ([1]; 0.1M Sodium acetate, pH 4.0, activity at pH7 = 100) was 7. For the same molecule, the Relative activity ([1]; 0.1M Sodium acetate, pH 4.5, activity at pH7 = 100) was 25, the Relative activity ([1]; 0.1M Sodium acetate, pH 5.0, activity at pH7 = 100) was 57 and the Relative activity ([1]; 0.1M Sodium acetate, pH 5.5, activity at pH7 = 100) was 71. The Relative activity ([1]; 0.1M Tris-hydrochloric acid, pH 7.5, activity at pH7 = 100) was 96, the Relative activity ([1]; 0.1M Tris-hydrochloric acid, pH 8.0, activity at pH7 = 100) was 95 and the Relative activity ([1]; 0.1M Tris-hydrochloric acid, pH 8.5, activity at pH7 = 100) was 85. For the same molecule, the Relative activity ([1]; 0.1M Tris-hydrochloric acid, pH 9.0, activity at pH7 = 100) was 67, the “activity remaining relative to before heat treatment” value ([2]; after treatment at 30° C. to 60° C.) was at least 90% and the Residual activity ([2]; treatment 30° C.) was 108. It also gave a Residual activity ([2]; treatment 40° C.) of 115, a Residual activity ([2]; treatment 50° C.) of 120 and a Residual activity ([2]; treatment 60° C.) of 100. For the same molecule, the Residual activity ([2]; treatment 70° C.) was 12, the conversion rate ([3]; (S)-1-phenethylamine 85.6 mM, 1-benzyl-3-pyrrolidinone 57.1 mM, pH 7.0, 30° C.) was 90% and the optical purity ([3]; generated (S)-1-benzyl-3-aminopyrrolidine, 30° C.) was 98.0 % e.e. For the same molecule, the “Transamination activity for (S)-1-phenethylamine” value [4] was 11.8 U/mg, the “Residual activity rate (%)” value ([5]; 1-Propanol 80% v/v) was 97% and the “Residual activity rate (%)” value ([5]; 2-Propanol 80% v/v) was 100%. The “stability against 1-propanol, 2-propanol, and acetone” value ([5]; 80% v/v solvent) was “extremely stable” and the “Residual activity rate (%)” value ([5]; Acetone 80% v/v) was 99%.
